Test results taken from patent publication US7541156B1, “Method of identifying antinociceptive compounds using protease activated receptor-2” (priority 2000, dated 2009).
Each block holds one molecule with its values, some of them ahead of it. No end group written: not given here.

Assays:
PAR-2 [1] = biological target: T1, PAR-2 (Rattus norvegicus, UniProt Q63645); assay: Intracellular Ca2+ response of primary neuronal cultures; format: cell-based; conditions: primary neuronal cultures of adult rat DRGs
T1 construct: assessing the response of primary neuronal cultures to trypsin and AcPep; endogenous in cells; host or cells: primary cultures of adult Sprague-Dawley rat DRG neurons
T1 sequence (Q63645 26-397): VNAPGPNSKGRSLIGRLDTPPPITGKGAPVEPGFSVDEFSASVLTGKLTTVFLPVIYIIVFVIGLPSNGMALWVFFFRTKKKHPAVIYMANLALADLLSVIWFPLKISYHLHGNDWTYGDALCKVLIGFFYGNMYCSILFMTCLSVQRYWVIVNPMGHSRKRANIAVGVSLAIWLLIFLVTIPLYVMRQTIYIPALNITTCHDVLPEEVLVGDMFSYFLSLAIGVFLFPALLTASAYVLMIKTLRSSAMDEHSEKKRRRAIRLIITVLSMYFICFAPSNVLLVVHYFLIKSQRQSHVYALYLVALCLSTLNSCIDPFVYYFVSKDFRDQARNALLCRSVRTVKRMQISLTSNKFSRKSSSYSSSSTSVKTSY
Source text: In the results which follow, it is shown that activated proteases can have direct effects on sensory neurons, mediated by specific receptors. PAR-1 and PAR-2 are present in rat DRGs (Young et al. 2000). The presence of one of these receptors, PAR-2, in sensory neurons is first confirmed by finding evidence of mRNA and protein expression in adult rat thoracic DRGs. The functional implications of PAR-2 expression are then examined by assessing the response of primary neuronal cultures to trypsin and AcPep. Both agonists increased intracellular Ca^2+ confirming previously reported findings that a functional PAR 2 receptor is present in adult rat DRGs (Steinhoff et al. 2000). Trypsin stimulates both PAR-1 and PAR-2 and therefore an increase in intracellular Ca^2+ can be caused by activation of the two different receptors. […] Therefore the increased intracellular Ca^2+ response to AcPep reflects specific PAR-2 mediated activation.
Cell Culture. Primary cultures of rat DRG neurons were prepared from male adult Sprague Dawley rats (200-250 gm). Following enzymatic treatment and dissociation, neurons were spun through a percoll cushion (Hofbauer et al. 1998) and were plated at a density of 10,000-20,000 neurons/well of a 48 well tissue culture plate. […]

PAR-2 [2] = biological target: T2, PAR-2 (Homo sapiens, UniProt P55085); conditions: Blackhart et al. 1996; cited from earlier work
T2 sequence (P55085 26-397): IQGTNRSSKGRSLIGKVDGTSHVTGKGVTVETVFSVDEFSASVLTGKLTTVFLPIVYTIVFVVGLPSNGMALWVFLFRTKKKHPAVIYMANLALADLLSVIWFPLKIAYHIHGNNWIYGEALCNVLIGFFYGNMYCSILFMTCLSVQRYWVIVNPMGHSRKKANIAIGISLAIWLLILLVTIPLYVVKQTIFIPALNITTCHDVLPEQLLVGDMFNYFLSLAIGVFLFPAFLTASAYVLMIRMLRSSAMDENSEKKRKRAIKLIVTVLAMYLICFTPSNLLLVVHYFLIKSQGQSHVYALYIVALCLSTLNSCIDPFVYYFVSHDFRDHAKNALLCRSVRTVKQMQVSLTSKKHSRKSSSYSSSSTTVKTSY

PAR-1 = biological target: T3, PAR-1 (Homo sapiens, UniProt P25116); conditions: Blackhart et al. 1996; cited from earlier work
T3 sequence (P25116 22-425): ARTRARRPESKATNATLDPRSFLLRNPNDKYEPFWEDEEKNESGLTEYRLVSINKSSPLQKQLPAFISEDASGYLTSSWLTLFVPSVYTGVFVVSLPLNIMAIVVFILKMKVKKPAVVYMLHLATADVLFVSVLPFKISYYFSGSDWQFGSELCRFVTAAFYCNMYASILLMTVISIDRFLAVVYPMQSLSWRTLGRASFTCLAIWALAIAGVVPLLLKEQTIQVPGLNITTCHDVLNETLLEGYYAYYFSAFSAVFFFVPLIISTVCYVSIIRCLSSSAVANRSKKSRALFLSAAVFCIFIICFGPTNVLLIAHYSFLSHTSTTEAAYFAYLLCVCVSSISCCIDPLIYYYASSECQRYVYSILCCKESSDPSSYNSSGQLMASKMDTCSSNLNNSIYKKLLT

mouse Par2 = biological target: T4, mouse Par2 (Mus musculus, UniProt P55086); conditions: expressed in frog oocytes; cited from earlier work
T4 construct: host or cells: frog oocytes
T4 sequence (P55086 26-399): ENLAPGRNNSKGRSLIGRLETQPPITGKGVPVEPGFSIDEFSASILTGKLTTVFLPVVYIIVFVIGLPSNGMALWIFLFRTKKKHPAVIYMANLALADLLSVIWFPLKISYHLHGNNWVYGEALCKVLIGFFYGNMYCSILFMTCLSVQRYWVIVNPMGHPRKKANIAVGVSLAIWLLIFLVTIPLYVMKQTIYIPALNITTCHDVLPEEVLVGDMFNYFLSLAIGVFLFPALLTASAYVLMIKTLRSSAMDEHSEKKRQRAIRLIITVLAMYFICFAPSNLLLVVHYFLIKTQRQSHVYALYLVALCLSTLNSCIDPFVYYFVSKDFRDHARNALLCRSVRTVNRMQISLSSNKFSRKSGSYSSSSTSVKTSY

[3] = tested on: cultured adult rat thoracic DRG neurons; assay: CGRP release assay in cultured DRG neurons; format: cell-based; conditions: 10 min pretreatment with peptide 10 μM, mean of wells, three experiments
Method: Cell Culture. Primary cultures of rat DRG neurons were prepared from male adult Sprague Dawley rats (200-250 gm). Following enzymatic treatment and dissociation, neurons were spun through a percoll cushion (Hofbauer et al. 1998) and were plated at a density of 10,000-20,000 neurons/well of a 48 well tissue culture plate. Cultures were maintained in DME+10% FCS supplemented with penicillin/streptomycin, 150 μM uridine and 50 μM 5-fluoro-2-deoxyuridine (Nguyen et al. 1999). NGF (murine, recombinant, 2.5S; Promega, Madison, Wis.) was used at 50 ng/ml. Neurons were treated for five days before release experiments or Calcium-imaging studies were performed.
CGRP release assay. Immunoreactive calcitonin gene-related peptide (IR-CGRP) release from DRG cultures was performed as described by Hingtgen et al. (1995). Briefly, neuron cultures were washed with Release Buffer (RB) (25 mM Hepes, pH 7.4, 135 mM NaCl, 3.5 mM KCl, 2.5 mM CaCl2, 1 mM MgCl2, 3.3 mM Glucose, 0.1% BSA, 1 μM phosphoamidon), and were incubated for 10 min at 37° C. in RB plus 0.1% ethanol (Capsaicin vehicle) to measure basal CGRP release. Fresh RB containing the appropriate concentration of activating peptide (AcPep) or control peptide (CoPep) was added for an additional 10 minutes. Peptide treatment was followed by a 10 minute incubation with an appropriate dose of Capsaicin or KCl. IR-CGRP released by neurons was measured by ELISA. Activating peptide and control peptide were prepared by standard solid phase synthesis procedures by the UTMB Core Protein Facility.
CGRP Quantification. CGRP was quantified in a standard sandwich ELISA. In brief, 96-well “U” bottom microtiter ELISA plates (Dynex, Chantilly, Va.) were coated with affinity purified polyclonal rabbit antibody to rat CGRP (Peninsula Labs, Belmont, Calif.) at 3 μg/ml in 0.125M borate buffered saline (pH 8.1) (100 μl/well). The plates were incubated overnight at 37° C. The next day, the plates were washed three times with saline containing 0.05% Tween-20. Purified rat CGRP (Peninsula Labs) was used at a previously standardized concentration range of 25-1 ng/ml in a four-fold dilution to generate a standard curve. An equal volume of the sample was added in duplicate to a seventy-five μl/well of Tween-PBS (pH 7.1) and the plates were incubated for two hours on a shaker at room temperature. The plates were washed 3 times with Tween-PBS and 100 μl/well (0.2 mg/ml; 1:500 dilution) of in-house biotinylated, rabbit anti rat CGRP IgG (Peninsula Labs) was applied and incubated for two hours at room temperature. After three washes 150 μl of 1:1000 diluted streptavidine-horseradish peroxidase conjugate (Zymed, San Fransisco, Calif.) was added to each well and the plates were incubated for 90 min at room temperature. One-hundred-fifty μl/well of the substrate ortho-phenylene diamine dihydrochloride (Sigma Chemicals, St. Louis, Mo.) 0.4 mg/ml in citrate buffer (pH 4.9) was added after plates were washed three more times. Forty μl/100 ml of 30% H2O2 was added fresh to the citrate buffer just before adding to the wells to activate the coloring reaction. The reaction was stopped with 5N H2SO4 (50 μl/well) and the plates were read at 490 nm in an automated ELISA reader (Bio-Tek Instruments, Inc., Winooski, VE). The OD values were plotted against the CGRP standard curve and CGRP immunoreactivity was quantified using the appropriate formula and expressed as nanogram/ml.
Statistics. Release data are presented as the mean± standard error of the mean (SEM) of wells from three separate experiments. To compare the effects of activating peptide and control peptide on subsequent evoked release, an overall test based on the analysis of variance was performed (ANOVA). […] Intraductal injection studies were analyzed using a repeated measure ANOVA and individual means were compared using a Newman-Keuls multiple comparison test. Significance levels were set at p<0.05. […]

[4] = tested on: pancreatic afferent neurons / spinal segments T8-T10; assay: c-FOS expression in spinal cord segments after pancreatic intraductal injection; format: in vivo, rat; conditions: peptide 100 μM intraductal, followed 30 min later by Capsaicin 0.5 mg/kg; 2.5 hours
Method: Intraductal (pancreatic duct) injection. To administer the necessary peptides directly into the rat pancreatic duct we followed a modified protocol, previously described by Kim et al. (1996). In brief, rats were anesthetized i.p. with nembutal sodium (Abbot Laboratories, Chicago, Ill.) (50 mg/kg body weight). The peritoneum was incised to expose the duodenum and the duodenal loop was pulled out. The pancreatic duct entering the duodenum was identified under dissecting microscope and a small niche was made into the duct with a 30-gauge needle. A polyethylene 10 tubing (0.61 mm outer diameter) (Becton Dickinson and Company, Franklin Lakes, N.J.) was guided into the duct and tied to secure its position. The common bile duct was ligated close to the liver to prevent entry of the injected substance into the liver. Similarly the duct was ligated near its entry into the duodenum. The position of the tube into the pancreatic duct was confirmed by freely flowing bile through the tubing. […] Thirty minutes later Capsaicin 0.5 mg/kg (total volume 500 μl) or vehicle (1×PBS, 10% ETOH, 1% Tween) was injected to half of the AcPep or CoPep injected rats. Three rats were included in each treatment group (n=3 for number of experiments). The tubing was carefully removed and bile flow from the liver into the duodenum was re-established. The abdominal cavity was closed with sutures. Rats were sacrificed 2.5 hrs after the initial injection.
C-fos staining. Rats were anesthetized with sodium pentobarbital (50 mg/kg i.p.) and perfused with 200 mls PBS followed by 500 mls ice-cold freshly prepared 4% paraformaldehyde in PBS. Spinal cord (level T5-T13) was removed, post-fixed in 4% paraformaldehyde for 18 hrs at 4° C. and placed in PBS (pH 7.4) containing 30% sucrose for 24 hrs at 4° C. Frozen sections (40 μm) were cut on a cryostat and stored as floating sections in PBS at 4° C. Every third section was stained for c-fos with a rabbit polyclonal serum, 1:1000 dilution, (c-fos, Ab-5, Oncogene Research Products) utilizing manufacturer's protocol. Antibody staining was visualized using a biotinylated secondary antisera and Vectastain ABC peroxidase kit with DAB as substrate. Sections were mounted on Superfrost Plus slides (VWR Scientific, West Chester, Pa.) and dehydrated. The number of c-FOS immunoreactive (IR) neurons were counted in 10 randomly chosen sections per segment under brightfield illumination and then averaged.
Statistics. Release data are presented as the mean± standard error of the mean (SEM) of wells from three separate experiments. […] Intraductal injection studies were analyzed using a repeated measure ANOVA and individual means were compared using a Newman-Keuls multiple comparison test. […]

[5] = biological target: T5, protease activated receptor-2 (PAR-2) of adult rat thoracic dorsal root ganglion neurons (rat, UniProt Q63645 37-397); assay: cell-based or functional assay
T5 sequence (looked up): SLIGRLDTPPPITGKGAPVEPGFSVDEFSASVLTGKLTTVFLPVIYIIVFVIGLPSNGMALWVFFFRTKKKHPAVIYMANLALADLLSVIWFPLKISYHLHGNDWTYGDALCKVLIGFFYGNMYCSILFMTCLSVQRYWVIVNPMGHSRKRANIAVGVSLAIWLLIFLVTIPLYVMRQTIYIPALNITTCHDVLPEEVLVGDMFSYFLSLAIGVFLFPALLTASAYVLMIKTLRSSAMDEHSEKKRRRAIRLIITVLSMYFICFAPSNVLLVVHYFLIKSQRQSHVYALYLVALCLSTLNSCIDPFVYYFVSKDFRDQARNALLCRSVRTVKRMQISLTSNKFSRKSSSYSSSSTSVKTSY

intracellular Ca2+ (PAR-2 [1]): increased
Molecule: trypsin: serine protease that stimulates both PAR-1 and PAR-2
activation of PAR-2 (PAR-2 [2]): stimulates
activation of PAR-1 (PAR-1): stimulates
receptor activation, in words (mouse Par2): could be activated with nanomolar concentrations

Molecule: thrombin
concentration without receptor activation (mouse Par2): > 100 nM

Molecule: RLGILS-amide (RLGILS-NH2) [CoPep]
CGRP release induced by Capsaicin (50 nM) ([3]; then Capsaicin 50 nM for 10 min in presence of peptide): 4.77 ng/mL
CGRP release induced by KCl (70 mM) ([3]; then KCl 70 mM for 10 min in presence of peptide): 1.8 ng/mL
Capsaicin-evoked c-FOS expression in segments T8-T10 [4]: as strong a stimulant as AcPep alone

augmentation of Capsaicin-evoked CGRP release (multiple of the basal release), AcPep 10 µM [5]: ~2 fold
augmentation of KCl-evoked CGRP release (multiple of the basal release), AcPep 10 µM [5]: 1.5 fold
Molecule: SLIGRL [PAR-2 activating peptide (AcPep)]
